Data on 4 molecules can be found in US20090029924A1.

In this assay the target is Recombinant human furin (human), P09958. As to the kind of experiment: furin, Pyr-RTKR-AMC cleavage.
Chain of Recombinant human furin (human), P09958 (P09958 108-714 limits assumed): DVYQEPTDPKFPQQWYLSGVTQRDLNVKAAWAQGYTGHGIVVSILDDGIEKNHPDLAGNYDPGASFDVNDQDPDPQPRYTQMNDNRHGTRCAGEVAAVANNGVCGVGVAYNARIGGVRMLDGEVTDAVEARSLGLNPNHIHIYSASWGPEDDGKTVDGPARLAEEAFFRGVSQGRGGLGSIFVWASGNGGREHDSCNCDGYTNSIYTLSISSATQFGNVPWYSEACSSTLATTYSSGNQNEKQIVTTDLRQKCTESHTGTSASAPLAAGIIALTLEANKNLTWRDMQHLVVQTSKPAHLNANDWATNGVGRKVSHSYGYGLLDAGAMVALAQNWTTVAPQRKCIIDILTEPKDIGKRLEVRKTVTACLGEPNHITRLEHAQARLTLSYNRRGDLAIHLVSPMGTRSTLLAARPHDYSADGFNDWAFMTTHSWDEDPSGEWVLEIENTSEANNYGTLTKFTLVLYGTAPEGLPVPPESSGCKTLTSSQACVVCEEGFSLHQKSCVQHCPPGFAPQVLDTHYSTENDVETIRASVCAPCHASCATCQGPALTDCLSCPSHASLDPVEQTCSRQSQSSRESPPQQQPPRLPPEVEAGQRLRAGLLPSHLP
Regarding RRRKKRT (modifications not checked), the Ki is 17.6 nM. Turning to TPRERRRKAAV (modifications not checked) […], the Ki is > 100 nM. For RKKRT (modifications not checked), the Ki was found to be 1000 nM.

For the molecule RRKKRT (modifications not checked), the Ki came to 32.5 nM.

One may read the Ki as a dissociation constant, usually derived from enzyme kinetics or from competition with a known ligand.
